Measurements from patent US20220177591A1 (TARGINTA, published 2022).

Target: T1, human integrin alpha10 on human cancer cell lines (BT549, PC-3, A549, MiaPaCa-2, PANC-1) (human, UniProt O75578 23-1167)
T1 construct: Endogenous protein on human cell lines; also called integrin alpha10 polypeptide; alpha10 subunit of integrin alpha10 beta1
T1 sequence: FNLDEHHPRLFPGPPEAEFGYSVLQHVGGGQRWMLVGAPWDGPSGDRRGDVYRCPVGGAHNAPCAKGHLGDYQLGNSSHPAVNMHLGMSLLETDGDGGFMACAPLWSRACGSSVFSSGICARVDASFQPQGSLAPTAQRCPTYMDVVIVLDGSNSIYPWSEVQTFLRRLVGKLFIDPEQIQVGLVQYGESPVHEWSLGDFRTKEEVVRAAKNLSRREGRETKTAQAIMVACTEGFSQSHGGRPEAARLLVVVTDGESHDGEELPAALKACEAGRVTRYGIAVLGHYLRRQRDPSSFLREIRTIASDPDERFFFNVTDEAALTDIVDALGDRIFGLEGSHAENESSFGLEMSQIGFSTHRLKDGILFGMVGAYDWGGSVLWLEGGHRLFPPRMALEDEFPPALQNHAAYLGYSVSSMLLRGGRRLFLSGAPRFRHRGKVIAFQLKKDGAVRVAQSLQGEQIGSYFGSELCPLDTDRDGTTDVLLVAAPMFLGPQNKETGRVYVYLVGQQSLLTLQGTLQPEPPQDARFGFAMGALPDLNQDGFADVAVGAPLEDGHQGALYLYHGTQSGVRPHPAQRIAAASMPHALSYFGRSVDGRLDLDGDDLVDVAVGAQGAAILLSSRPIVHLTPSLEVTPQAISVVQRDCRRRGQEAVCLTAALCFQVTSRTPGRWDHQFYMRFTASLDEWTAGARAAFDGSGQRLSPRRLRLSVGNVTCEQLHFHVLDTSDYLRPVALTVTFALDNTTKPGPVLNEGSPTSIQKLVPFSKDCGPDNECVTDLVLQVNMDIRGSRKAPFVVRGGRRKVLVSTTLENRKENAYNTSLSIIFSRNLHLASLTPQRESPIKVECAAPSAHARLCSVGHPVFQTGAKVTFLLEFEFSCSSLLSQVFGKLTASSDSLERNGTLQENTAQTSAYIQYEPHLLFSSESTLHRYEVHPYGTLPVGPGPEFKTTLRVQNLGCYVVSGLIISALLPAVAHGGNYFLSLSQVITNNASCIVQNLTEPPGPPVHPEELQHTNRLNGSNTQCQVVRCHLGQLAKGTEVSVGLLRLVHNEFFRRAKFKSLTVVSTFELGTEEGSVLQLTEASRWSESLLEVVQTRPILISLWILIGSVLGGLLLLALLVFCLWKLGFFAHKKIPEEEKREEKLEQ
Assay: flow cytometry competition on BT549 cells
Method: The binding competition assay of the antibody mouse monoclonal antibody mAbα10 and the human monoclonal antibody Th101 was performed in integrin alpha10 overexpressing C2C12α10 cells and triple-negative breast cancer BT549 cells. The cells were incubated with single or mixed antibodies at the indicated concentrations (μg/ml) for 30 min followed by two washed, and then stained with secondary antibodies for 30 min. Donkey anti-human Alexa 488 was used as a secondary antibody to the human monoclonal antibody Th101. Donkey anti-mouse Alexa 647 was used as a secondary antibody to the mouse monoclonal antibody mAbα10. The binding of the antibodies was analyzed by flow cytometry, wherein the fluorescence signal of the secondary antibodies were detected.

binding result: binds
B1: human monoclonal anti-integrin alpha10 antibody Th101 (antibody, V domains shown)
VH: EVQLLESGGGLVQPGGSLRLSCAASGFTFSDYGMNWVRQAPGKGLEWVAVISYDGSNKYYADSVKGRFTISRDNSKNTLYLQMNSLRAEDTAVYYCARGGNWGVFDYWGQGTLVTVSS
VL: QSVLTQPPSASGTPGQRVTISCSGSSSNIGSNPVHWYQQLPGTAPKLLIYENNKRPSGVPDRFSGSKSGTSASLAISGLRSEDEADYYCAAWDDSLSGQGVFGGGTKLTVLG
notes: It is a human monoclonal antibody detected with an anti-human secondary; Its negative control Th301 is human IgG1 VH/Lambda
